Measurements published in US20210061893A1.
Where no end group is shown, it is not given here.

Key:
[1] = target: antibodies raised to …-NH2 (SEQ. ID NO: 7); assay: RIA or EIA, competitive immunoassay with antibodies raised to SEQ ID NO: 7; standard peptide not named
[2] = target: phoenixin binding sites on rat pituitary adenoma cells, RC-4B/C (rat); assay: displacement of 50 pM 125I-Y0-Phoenixin-20 amide from RC-4B/C cells, gamma counting

For AGIVQEDVQPPGLKVWSDPF-NH2 [Phoenixin-20 amide, …-NH2], the EC50 [1] was 0.2 ng/mL and the IC50 [2] was 21.5 nM.

In the case of DVQPPGLKVWSDPF-NH2 [phoenixin-14 amide, …-NH2], the IC50 [2] is reported as 17.9 nM.
